Experimental data from paper doi:10.1101/2021.09.30.462564 (bioRxiv, 2021).

Target: the molecule itself
Test: crystal structure; His-SUMO tagged P. shigelloides NagK crystallised by the microbatch method; X-ray data at 100 K

B1: N-acetylglucosamine kinase (NagK) from Plesiomonas shigelloides (enzyme)
chain: MYYGFDIGGTKIEFGAFDADLVRVARERVATPTESYAAFLDAIVTLVNNADAEFGVKGTVGIGIPGIADVETGKLLTSNIPAAMGHTLQRDLEERLQRPVKIENDANCFALSEAWDEDLRGEPSVLGLILGTGVGGGLIFNGKVHSGRANIAGEIGHTRLPYDALKLLGMENAPIFPCGCKNSGCIDNYLSGRGFEQLYDHYFSEKLSAPEIIAHYEQGERRAVQHVERFMELLAICLANIFTCLDPHVVVLGGGLSNFELIYQELPKRLPAHLLHVAKLPKIIKARHGDAGGVRGAAFLNL
notes: N-acetylglucosamine kinase NagK of Plesiomonas shigelloides, codon optimised gene in pOPINS3C; His-SUMO tagged construct (pOPINS3C) used for crystallisation; no cleavage of the tags is described; also called PsNagK; P. shigelloides NagK; source: E. coli BL21 (DE3), purified (HisTrap, Superdex 200 size exclusion); not shown: polyhistidine, N-terminal, kept; SUMO, N-terminal, kept
binding result: binds
